Here are results for one sequence from publication PMC7948927.

Common to all, as to assay: MST
Series [1] addresses OGG1 R161W R161W (Homo sapiens) (UniProt O15527). The note with it: saturation not reached; N at position 11 of strand 1 = THF (tetrahydrofuran abasic site analog), opposite C; MST: 100 nM labeled duplex, 0.0185-3.28 uM protein, 10 mM Na phosphate pH 7.5, 7% glycerol; temperature not stated.
A further series deals with OGG1 WT (Homo sapiens) (UniProt O15527). The note with it: N at position 11 of strand 1 = THF (tetrahydrofuran abasic site analog), opposite C; MST: 100 nM labeled duplex, 0.0185-3.28 uM protein, 10 mM Na phosphate pH 7.5, 7% glycerol; temperature not stated.
The target in series [2] is OGG1 S292N S292N (Homo sapiens) (UniProt O15527). The note with it: saturation not reached; N at position 11 of strand 1 = THF (tetrahydrofuran abasic site analog), opposite C; MST: 100 nM labeled duplex, 0.0185-3.28 uM protein, 10 mM Na phosphate pH 7.5, 7% glycerol; temperature not stated.
Series [3] concerns the target OGG1 I145M I145M (Homo sapiens) (UniProt O15527). The note with it: saturation not reached; N at position 11 of strand 1 = THF (tetrahydrofuran abasic site analog), opposite C; MST: 100 nM labeled duplex, 0.0185-3.28 uM protein, 10 mM Na phosphate pH 7.5, 7% glycerol; temperature not stated.

OGG1 I145M I145M (Homo sapiens), sequence (O15527 whole entry I145M): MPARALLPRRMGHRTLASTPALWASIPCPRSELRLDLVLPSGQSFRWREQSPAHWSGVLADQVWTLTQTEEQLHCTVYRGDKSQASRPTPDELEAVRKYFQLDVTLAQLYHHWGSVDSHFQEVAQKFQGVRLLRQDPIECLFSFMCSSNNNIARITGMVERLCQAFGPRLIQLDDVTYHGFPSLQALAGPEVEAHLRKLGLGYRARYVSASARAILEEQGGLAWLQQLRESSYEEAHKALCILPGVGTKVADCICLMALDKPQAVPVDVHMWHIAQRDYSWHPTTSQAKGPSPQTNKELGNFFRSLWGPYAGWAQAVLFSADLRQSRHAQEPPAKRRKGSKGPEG
OGG1 S292N S292N (Homo sapiens), sequence (O15527 whole entry S292N): as the sequence (O15527 whole entry I145M) above, with M145I, S292N counted along it
OGG1 R161W R161W (Homo sapiens), sequence (O15527 whole entry R161W): as the sequence (O15527 whole entry I145M) above, with M145I, R161W counted along it
OGG1 WT (Homo sapiens), sequence (O15527 whole entry): as the sequence (O15527 whole entry I145M) above, with M145I counted along it

Regarding “CTCTCCCTTCNCTCCTTTCCTCT / AGAGGAAAGGAGCGAAGGGAGAG [THF:C duplex]”, the dissociation constant Kd in series [1] amounted to 1.06 µM; with OGG1 WT (Homo sapiens) it was 0.14 µM; in series [2] it was 1.39 µM; in series [3] it was 0.9 µM.

In general, Kd refers to the concentration at which binding is half-saturated. Lower therefore signals higher affinity.
